Results: publication PMC12426278

How the values were obtained:
[1] = biological target: huCD147-Strep (soluble extracellular domain of human CD147, Strep-tag II) (human); assay: BLI; Octet Red96e; […] (20 μg/mL) […]; 25 mM HEPES, 150 mM NaCl pH 7.5, 0.04% Tween-20; global 1:1 model
[2] = biological target: huCD147mt-Strep (glycosylation-deficient soluble extracellular domain of human CD147, Strep-tag II) (human); assay: as above

[change] (soluble extracellular domain of H9N2 HA) (domain or fragment)
Kd [1]: 310 nM
Kd [2]: 200 nM

[change] (soluble extracellular domain of H1N1 HA) (from UniProt P03452 18-528) (domain or fragment)
Kd [1]: 700 nM
Kd [2]: 500 nM
